The target in this test is methanol dehydrogenase (MDH) of Bacillus brevis S1 strain (NCIMB No. 12524) (Bacillus brevis S1 strain).

Regarding “methanol dehydrogenase activator YqkG of Bacillus subtilis (product of the yqkG / amd gene)”, the Activation ratio (%) of methanol dehydrogenase activity (Δ OD 340 nm/min, reduction of NAD+) came out at 250%.
